Test system: MS2 coat protein
Experiment: apparent KD of MS2 coat protein; designed switch direction (-1 OFF switch, 1 ON switch): 1; higher = weaker reporter binding
Method in brief: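 Designed RNA switches with common flanks were made on Illumina chips by stalled E. coli RNA polymerase. Titration with SNAP-549-labelled MS2 coat protein doubled from 0.7 or 1.5 nM up to 3 µM. Apparent KD is each design's median over clusters after curve-fitting normalised fluorescence.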

[1] = input ligand: microRNA oligo, concentration not stated
[2] = Eterna round: R95, input ligand: FMN 200 uM
[3] = Eterna round: R95, input ligand: microRNA oligo, concentration not stated
[4] = Eterna round: R95, input ligand: none

| Sequence | apparent KD of MS2 coat protein (input ligand: FMN 200 uM) | apparent KD of MS2 coat protein [1] | apparent KD of MS2 coat protein (input ligand: none) | apparent KD of MS2 coat protein [2] | apparent KD of MS2 coat protein [3] | apparent KD of MS2 coat protein [4] |
| --- | --- | --- | --- | --- | --- | --- |
| GCUCGAUGAGCGUUUUACAUGAGGAUCACCCAUGUACGUGGGCAGGAUAUUUACGUGCGGUGUGUAGAGAAGGGCCCAUCGAGC [SameState NG3 #70] (Eterna round: R96, puzzle: Same State NG 3) | 48.3 nM | 243 nM | 279 nM | – | – | – |
| UAGAGAGGAAGCGAGGAUAUCGUGUGAGGUACAUGAGGAUCACCCAUGUUUGAUGUUGAGAGAGGCGAGAAGGCGCAGGAGAAAA [JR_SS2_Sub086] (puzzle: Same State 2) | – | – | – | 30.8 nM | 24.9 nM | 38.7 nM |
| CGAAAGAAGCGAGGAUAUGCAGAGGAUCACCCUGCAGAAGGCGCAAAAGCGAGGAUAUGCAGAGGAUCACCCUGCAGAAGGCGC [pwkr ssNG DX.32] (Eterna round: R96, puzzle: Same State NG 1) | 20.2 nM | 20.5 nM | 18.1 nM | – | – | – |
| GUAGCAUACCGAGGAUAUUCAUAUAUACAUGAGGAUCACCCAUGUUAAAAUAGGCGAAAGCCUUGGGAGAAGGCGGAAUGCUAC [Xeonanis - 20 Mod67] (Eterna round: R96, puzzle: Same State NG 2) | 9.45 nM | 11.4 nM | 15 nM | – | – | – |
| GCGAGCGUACUUGCUACAUGAGGAUCACCCAUGUCUAUUGGACAGGAUAUGGUACCGUUUCGGUACCAGAAGGGUUCAUCAUGU [JL SSNG3 3.72] (Eterna round: R96, puzzle: Same State NG 3) | 400 nM | 46.2 nM | 34.6 nM | – | – | – |
| UGACACACGGCAGGAUAUGCUUAGCAAAGCUAAGCAGAAGGGCCUCAUGUCGUGGAAACGUGACAUGAGGAUCACCCAUGUCGC [Omei SS(NG)1 Cv4] (Eterna round: R96, puzzle: Same State NG 1) | 122 nM | 6.01 nM | 17.7 nM | – | – | – |
| AGUAUACAUGAGGAUCACCCAUGUCAACGUAGUCGAGGAUAUGGGCAGCCGUGAGGCGUACUAGAAGGCGAAGAGA [Mat - Same State 1 - Mod of JL - D7] (puzzle: Same State 1) | – | – | – | 48.9 nM | 135 nM | 101 nM |
| GGUCCAGCCUGAGCUGGACCACAGCAUGUACAUGAGGAUCACCCAUGUCAUGUACAUGCUUUUUGUUUGUCUUAAAA [Sensorship 11 - Jieux - Sensor for hsa-mir-208a] (puzzle: Sensor for hsa-mir-208a) | – | – | – | 72.2 nM | 32.7 nM | 47.3 nM |
| AAGUAGUGGUCAGGAUAUCAAAUCAUUGCAUCACGAUACAUGAGGAUCACCCAUGUCCCAAAAUAUGAGAAGGGACUCACACGG [Eternabot solution 45] (Eterna round: R96, puzzle: Same State NG 2) | 279 nM | 90.1 nM | 186 nM | – | – | – |
| ACAUGAGAGUCAGGAUAUAUUGUACCUACAUGUGACAUGAGGAUCACCCAUGUGGUAAGUAUGACAUAGAAGGGAUAGAUAUGU [Equivalance 85 - Jieux - Same State NG 2] (Eterna round: R96, puzzle: Same State NG 2) | 62.7 nM | 60.4 nM | 79.2 nM | – | – | – |
| GUGGCACAUGAGGAUCACCCAUGUAGGUAGAACAUAGGAUAUCACCAACAAAAUACCUGGUGAGAAGGAUGAUGCC [Zaesleer] (puzzle: Same State 1) | – | – | – | – | 143 nM | – |
